The chains are these.
B1: SASS6 (parent)
chain: QKELQDVGQSLRIKEQEVCKLQEQ
B2: FAM50A (parent)
chain: HIFPASRWEPYDPEKKWDKYTIR
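Further: lentivirally expressed fusions sorted by FACS into six bins by GFP to DsRed ratio, PSI derived from sequencing read proportions per bin multiplied by bin number.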

The variants in one data set derive from B1. In words: protein stability index of a GFP-peptide fusion (GPS, HEK-293T) (PSI 1-6); higher = more stable. As to conditions: c terminus: a fixed tail appended.
As for QKELQDVGQSLRIKEQEVRKLQEQ [C19R], the protein stability index came to 5.23.

Take QKELQDVGQSLRIKEQEVHKLQEQ [C19H]: the protein stability index was determined as 5.61.

On to QKELQDVGQSLRIKEQEVFKLQEQ [C19F], for which the protein stability index was found to be 5.35.

On to QKELQDVGQSLRIKNQEVCKLQEQ [E15N], for which the protein stability index stood at 3.15.

For QKELQDVGQSLRIKTQEVCKLQEQ [E15T], the protein stability index stood at 4.56.

Regarding QKELQDVGQSLRIKRQEVCKLQEQ [E15R], the protein stability index was 4.21.

QKELQDVGQSLRIKQQEVCKLQEQ [E15Q]: the protein stability index was 4.66.

For QKELQDVGQSLRIKVQEVCKLQEQ [E15V], the protein stability index is 3.54.

Regarding QKELQDVGQSLRIKSQEVCKLQEQ [E15S], the protein stability index came to 4.85.

As to QKELQDVGQSLRIKWQEVCKLQEQ [E15W], the protein stability index is 2.06.

Take QKELQDVGQSLRIKPQEVCKLQEQ [E15P]: the protein stability index is 4.66.

As for QKELQDVGQSLRIKEGEVCKLQEQ [Q16G], the protein stability index is 5.83.

Regarding QKELQDVGQSLRIKESEVCKLQEQ [Q16S], the protein stability index was 5.56.

As to QKELQDVGQSLRIKENEVCKLQEQ [Q16N], the protein stability index was 5.13.

On to QKELQDVGQSLRIKEYEVCKLQEQ [Q16Y], for which the protein stability index worked out at 4.68.

For the variant QKELQDVGQSLRIKECEVCKLQEQ [Q16C], the protein stability index came out at 4.99.

With QKELQDVGQSLRIKEIEVCKLQEQ [Q16I], the protein stability index was 4.84.

For QKELQDVGQSLRIKEHEVCKLQEQ [Q16H], the protein stability index was determined as 5.13.

For the variant QKELQDVGQSLRIKEVEVCKLQEQ [Q16V], the protein stability index turned out to be 5.21.

As to QKELQDVGQSLRIKETEVCKLQEQ [Q16T], the protein stability index was 5.28.

For the variant QKELQDVGQSLRIKEMEVCKLQEQ [Q16M], the protein stability index is 4.96.

Regarding QKELQDVGQSLRIKEAEVCKLQEQ [Q16A], the protein stability index amounted to 5.12.

With QKELQDVGQSLRIKEEEVCKLQEQ [Q16E], the protein stability index turned out to be 5.63.

Turning to QKELQDVGQSLRIKEWEVCKLQEQ [Q16W], the protein stability index is 4.66.

For QKELQDVGQSLRIKEKEVCKLQEQ [Q16K], the protein stability index was 5.48.

QKELQDVGQSLRIKEDEVCKLQEQ [Q16D]: the protein stability index was found to be 5.43.

Consider QKELQDVGQSLRIKELEVCKLQEQ [Q16L], for which the protein stability index worked out at 4.71.

Turning to QKELQDVGQSLRIKEQEVCKLQEG [Q24G], the protein stability index amounted to 5.12.

Regarding QKELQDVGQSLRIKEQEVCKLQES [Q24S], the protein stability index stood at 4.43.

As to QKELQDVGQSLRIKEQEVCKLQEK [Q24K], the protein stability index is 5.27.

Turning to QKELQDVGQSLRIKEQEVCKLQEW [Q24W], the protein stability index amounted to 4.84.

Turning to QKELQDVGQSLRIKEQEVCKLQET [Q24T], the protein stability index turned out to be 5.35.

In the case of QKELQDVGQSLRIKEQEVCKLQEP [Q24P], the protein stability index amounted to 5.58.

With QKELQDVGQSLRIKEQEVCKLQEC [Q24C], the protein stability index is 5.

For the variant QKELQDVGQSLRIKEQEVCKLQEV [Q24V], the protein stability index was 4.92.

For the variant QKELQDVGQSLRIKEQEVCKLQEL [Q24L], the protein stability index turned out to be 5.16.

QKELQDVGQSLRIKEQEVCKLQEH [Q24H]: the protein stability index was determined as 4.95.

For the variant QKELQDVGQSLRIKEQEVCKLQEY [Q24Y], the protein stability index came to 4.57.

QKELQDVGQSLRIKEQEVCKLQEN [Q24N]: the protein stability index was 5.39.

QKELQDVGQSLRIKEQEVCKLQED [Q24D]: the protein stability index amounted to 5.04.

With QKELQDVGQSLRIKEQEVCKLQEM [Q24M], the protein stability index was 5.05.

As for QKELQDVGQSLRIKEQEVCKLQEF [Q24F], the protein stability index was 4.44.

In the case of QKELQDVGQSLRIKEQEVCKLQEI [Q24I], the protein stability index stood at 4.7.

With QKELQDVGQSLRIKEQEVCKLQEA [Q24A], the protein stability index turned out to be 5.21.

Consider QKELQDVGQSLRIKEQEVCKLQEE [Q24E], for which the protein stability index was 5.77.

For QKELQDVGQSLRIKEQEVCKLQQQ [E23Q], the protein stability index stood at 4.71.

Regarding QKELQDVGQSLRIKEQEVCKLQCQ [E23C], the protein stability index was determined as 4.29.

As to QKELQDVGQSLRIKEQEVCKLQPQ [E23P], the protein stability index is 4.49.

For the variant QKELQDVGQSLRIKEQEVCKLQTQ [E23T], the protein stability index was determined as 4.99.

As to QKELQDVGQSLRIKEQEVCKLQGQ [E23G], the protein stability index stood at 5.58.

With QKELQDVGQSLRIKEQEVCKLQVQ [E23V], the protein stability index amounted to 4.51.

With QKELQDVGQSLRIKEQEVCKLQYQ [E23Y], the protein stability index is 4.12.

Regarding QKELQDVGQSLRIKEQEVCKLQHQ [E23H], the protein stability index was 5.02.

As for QKELQDVGQSLRIKEQEVCKLQMQ [E23M], the protein stability index stood at 4.24.

On to QKELQDVGQSLRIKEQEVCKLQSQ [E23S], for which the protein stability index came to 4.82.

QKELQDVGQSLRIKEQEVCKLQIQ [E23I]: the protein stability index came out at 4.4.

QKELQDVGQSLRIKEQEVCKLQNQ [E23N]: the protein stability index came to 4.5.

For the variant QKELQDVGQSLRIKEQEVCKLQLQ [E23L], the protein stability index stood at 4.69.

Turning to QKELQDVGQSLRIKEQEVCKLQDQ [E23D], the protein stability index came to 5.27.

For QKELQDVGQSLRIKEQEVCKLQFQ [E23F], the protein stability index was 4.52.

With QKELQDVGQSLRIKEQEVCKLQKQ [E23K], the protein stability index was found to be 4.89.

On to QKELQDVGQSLRIKEQEVCKLQRQ [E23R], for which the protein stability index was 4.76.

Variants of B2 are the subject of another data set. Described as above. Conditions: c terminus: native.
With HFFPASRWEPYDPEKKWDKYTIR [I2F], the protein stability index was determined as 2.33.

As to HPFPASRWEPYDPEKKWDKYTIR [I2P], the protein stability index was 2.15.

Turning to HDFPASRWEPYDPEKKWDKYTIR [I2D], the protein stability index stood at 2.28.

Consider HLFPASRWEPYDPEKKWDKYTIR [I2L], for which the protein stability index amounted to 3.1.

Regarding HVFPASRWEPYDPEKKWDKYTIR [I2V], the protein stability index is 2.88.

Take HGFPASRWEPYDPEKKWDKYTIR [I2G]: the protein stability index was 3.14.

For the variant HEFPASRWEPYDPEKKWDKYTIR [I2E], the protein stability index was determined as 2.95.

HNFPASRWEPYDPEKKWDKYTIR [I2N]: the protein stability index turned out to be 3.19.

Turning to HSFPASRWEPYDPEKKWDKYTIR [I2S], the protein stability index is 2.83.

Consider HHFPASRWEPYDPEKKWDKYTIR [I2H], for which the protein stability index came to 2.41.

Turning to HAFPASRWEPYDPEKKWDKYTIR [I2A], the protein stability index is 2.71.

For HWFPASRWEPYDPEKKWDKYTIR [I2W], the protein stability index was 2.16.

For the variant HCFPASRWEPYDPEKKWDKYTIR [I2C], the protein stability index was determined as 2.74.

Take HRFPASRWEPYDPEKKWDKYTIR [I2R]: the protein stability index was 3.2.

For HMFPASRWEPYDPEKKWDKYTIR [I2M], the protein stability index was 2.35.

For HTFPASRWEPYDPEKKWDKYTIR [I2T], the protein stability index turned out to be 2.38.

For HQFPASRWEPYDPEKKWDKYTIR [I2Q], the protein stability index was found to be 3.11.

Take HKFPASRWEPYDPEKKWDKYTIR [I2K]: the protein stability index stood at 2.48.

As for WIFPASRWEPYDPEKKWDKYTIR [H1W], the protein stability index came to 1.46.

For the variant PIFPASRWEPYDPEKKWDKYTIR [H1P], the protein stability index is 2.83.

In the case of SIFPASRWEPYDPEKKWDKYTIR [H1S], the protein stability index turned out to be 2.04.

Consider GIFPASRWEPYDPEKKWDKYTIR [H1G], for which the protein stability index was determined as 3.23.

Consider CIFPASRWEPYDPEKKWDKYTIR [H1C], for which the protein stability index came to 2.4.

Regarding KIFPASRWEPYDPEKKWDKYTIR [H1K], the protein stability index turned out to be 1.08.

For VIFPASRWEPYDPEKKWDKYTIR [H1V], the protein stability index came to 1.45.

For QIFPASRWEPYDPEKKWDKYTIR [H1Q], the protein stability index came out at 2.5.

Take NIFPASRWEPYDPEKKWDKYTIR [H1N]: the protein stability index came to 2.77.

Regarding IIFPASRWEPYDPEKKWDKYTIR [H1I], the protein stability index amounted to 1.58.

As to EIFPASRWEPYDPEKKWDKYTIR [H1E], the protein stability index was 2.52.

Regarding AIFPASRWEPYDPEKKWDKYTIR [H1A], the protein stability index was found to be 1.75.

With YIFPASRWEPYDPEKKWDKYTIR [H1Y], the protein stability index was 1.69.

Regarding RIFPASRWEPYDPEKKWDKYTIR [H1R], the protein stability index turned out to be 2.34.

MIFPASRWEPYDPEKKWDKYTIR [H1M]: the protein stability index came out at 1.22.

For the origin of these results see the supplement of paper PMC10567573.
